The values below come from patent US20110135672A1.

For test [1], the target named is ILT4 receptor on dendritic cells of ILT4 transgenic mice (UniProt Q8N423). Nature of the test: cell-based or functional assay.
Test [2] addresses ILT2-PILRβ chimera on NFAT-GFP reporter cells (UniProt Q8NHL6). Briefly: cell-based or functional assay.

Chain of ILT2-PILRβ chimera on NFAT-GFP reporter cells (Q8NHL6 24-461, change not shown): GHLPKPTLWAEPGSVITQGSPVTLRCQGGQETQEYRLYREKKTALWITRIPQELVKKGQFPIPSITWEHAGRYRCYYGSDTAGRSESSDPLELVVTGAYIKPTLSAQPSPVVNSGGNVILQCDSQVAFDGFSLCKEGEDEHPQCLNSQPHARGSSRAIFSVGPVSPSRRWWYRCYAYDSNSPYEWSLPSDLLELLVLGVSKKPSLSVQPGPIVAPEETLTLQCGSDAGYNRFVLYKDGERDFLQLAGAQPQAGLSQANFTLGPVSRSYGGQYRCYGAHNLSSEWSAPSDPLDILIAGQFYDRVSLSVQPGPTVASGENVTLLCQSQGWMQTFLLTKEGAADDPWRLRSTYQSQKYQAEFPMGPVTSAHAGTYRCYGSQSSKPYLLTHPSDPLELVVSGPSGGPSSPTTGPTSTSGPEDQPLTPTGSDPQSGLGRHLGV
Chain of ILT4 receptor on dendritic cells of ILT4 transgenic mice (Q8N423 22-597 limits assumed): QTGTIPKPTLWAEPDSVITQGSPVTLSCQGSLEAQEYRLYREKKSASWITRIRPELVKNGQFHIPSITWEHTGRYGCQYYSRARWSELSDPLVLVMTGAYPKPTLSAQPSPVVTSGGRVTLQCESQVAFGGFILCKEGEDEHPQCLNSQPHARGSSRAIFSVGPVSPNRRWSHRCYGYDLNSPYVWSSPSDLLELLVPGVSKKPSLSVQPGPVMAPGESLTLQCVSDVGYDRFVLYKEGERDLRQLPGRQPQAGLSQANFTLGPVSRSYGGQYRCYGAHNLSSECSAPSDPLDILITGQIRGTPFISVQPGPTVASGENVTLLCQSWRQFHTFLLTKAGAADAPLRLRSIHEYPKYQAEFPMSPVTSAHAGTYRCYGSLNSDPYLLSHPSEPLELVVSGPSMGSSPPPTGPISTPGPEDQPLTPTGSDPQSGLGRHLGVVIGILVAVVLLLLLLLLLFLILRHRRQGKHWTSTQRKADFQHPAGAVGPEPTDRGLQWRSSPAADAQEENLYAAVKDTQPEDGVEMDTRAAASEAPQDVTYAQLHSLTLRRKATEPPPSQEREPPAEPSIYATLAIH

Turning to “HLA-G1 tetrameric complexes (from UniProt P17693 25-300; P61769 21-119) (ligand)”, in test [1], the fold increase of IL-6 transcript in ILT4-positive BMDCs (gene array) is 9.3 fold.

For the substance “HLA-G5 dimer (from UniProt P17693 25-338; P61769 21-119) (ligand)”, in test [1], the fold increase of IL-6 transcript in ILT4-positive BMDCs (gene array) stood at 8.9 fold. In test [2], this substance yielded an MFI of GFP at 100 ng/ml immobilized ligand (NFAT-GFP reporter) of 9.9 MFI and a percentage of GFP-positive cells at 100 ng/ml immobilized ligand (NFAT-GFP reporter) of 56.8%.

As for “HLA-G5 monomer (from UniProt P17693 25-338; P61769 21-119) (ligand)”, in test [2], the mean fluorescent intensity (MFI) of GFP at 100 ng/ml immobilized ligand (NFAT-GFP reporter) was found to be 7.8 MFI and the percentage of GFP-positive cells at 100 ng/ml immobilized ligand (NFAT-GFP reporter) is 5.6%.
